US20250277029A1 (Amgen, published 2025)
Changes are numbered by the printed parent chain.

Experiments:
[1] = biological target: T1, human cannabinoid receptor 1 (huCB1), full length, expressed on cells (human, UniProt P21554 1-472); assay: cell-based or functional assay
[2] = biological target: T1, human cannabinoid receptor 1 (huCB1), …; assay: KinExA on-cell ranking, HEK 293T cells expressing full length CB1; %IFF of LIBC523661 divided by %IFF of antibody
huCB1 nanodisc (CB1-ND) = biological target: T2, huCB1 nanodisc (CB1-ND) (human, UniProt P21554 99-414); assay: Octet BLI; antibody captured by anti-human Fc, CB1-nanodisc in solution, 1:1 model
T2 construct: The His-tagged CB1 is embedded in a POPC lipid nanodisc with MSP1D1 scaffold protein (molar ratio 480:8:1); also called huCB1-ND; #CB1-008

[3] = biological target: T1, human cannabinoid receptor 1 (huCB1), …; assay: cell-based or functional assay; remark: listed apart in the source
[4] = biological target: T1, human cannabinoid receptor 1 (huCB1), …; assay: cell-based or functional assay; remark: listed apart in the source
[5] = biological target: T3, GFP-fused huCB1-SMALP (human CB1 in styrene maleic acid lipoparticles) (human, UniProt P21554 1-472); assay: flow cytometry, yeast-displayed IgG, GFP MFI
T3 construct: Prepared as in Luna V. et al. 2018; also called huCB1-GFP-SMALP; wtCB1-SMALP; not shown: GFP fusion

[6] = biological target: T4, His-tagged huCB1-ND (human CB1 in nanodisc) (human); assay: flow cytometry, yeast-displayed IgG, huCB1-ND over empty-ND
T4 construct: CB1 construct of Cell 167(3) (2016) 750-762 expressed in Sf9 cells; POPC:MSP1D1:CB1 480:8:1; also called CB1-nanodisc; huCB1-Nanodisc; not shown: histidine purification tag

[7] = biological target: T3, GFP-fused huCB1-SMALP (human CB1 in …); assay: flow cytometry on IgG-displaying yeast, 100 nM GFP-fused huCB1-SMALP, GFP in BB515-A (y) vs AlexaFluor647 anti-huFab display in APC-A (x)
[8] = biological target: T4, His-tagged huCB1-ND (human CB1 in …); assay: flow cytometry on IgG-displaying yeast, 0.2 nM His-tagged huCB1 nanodisc, APC anti-His (y) vs PE anti-huFc display (x)
mouse CB1 [9] = biological target: T5, mouse CB1 (mouse, UniProt P47746 1-473); assay: fold over mock (Table 14)
T5 construct: also called muCB1; murine CB1

[10] = biological target: T6, human cannabinoid receptor type 2 (CB2) (human, UniProt P34972 1-360); assay: fold over mock (Table 14)
T6 construct: also called huCB2; full length hu CB2

[11] = biological target: T4, His-tagged huCB1-ND (human CB1 in …); assay: flow cytometry, yeast-displayed IgG, binding/display ratio
mouse CB1 [12] = biological target: T5, mouse CB1; assay: binding to muCB1, fold over mock (method not described)
[13] = biological target: T6, human cannabinoid receptor type 2 (CB2); assay: binding to huCB2, fold over mock (method not described)
[14] = biological target: T3, GFP-fused huCB1-SMALP (human CB1 in …); assay: flow cytometry, yeast-displayed IgG, GFP MFI; remark: listed apart in the source
[15] = biological target: T7, empty-ND (nanodisc without CB1); assay: flow cytometry, yeast-displayed IgG, binding/display ratio
T7 construct: its only protein is the nanodisc scaffold; also called Empty Nanodisc

[16] = biological target: T4, His-tagged huCB1-ND (human CB1 in …); assay: as above; remark: listed apart in the source

T2 sequence (P21554 99-414 limits assumed): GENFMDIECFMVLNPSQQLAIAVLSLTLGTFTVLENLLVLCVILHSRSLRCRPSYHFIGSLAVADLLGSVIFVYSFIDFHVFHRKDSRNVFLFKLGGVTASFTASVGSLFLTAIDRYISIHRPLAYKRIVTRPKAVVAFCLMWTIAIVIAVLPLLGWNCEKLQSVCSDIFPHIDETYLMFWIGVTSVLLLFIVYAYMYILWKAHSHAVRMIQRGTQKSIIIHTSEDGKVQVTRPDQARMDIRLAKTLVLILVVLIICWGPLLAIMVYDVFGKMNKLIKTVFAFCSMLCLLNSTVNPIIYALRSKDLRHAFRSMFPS
T4 sequence (P21554 99-414): as the sequence (P21554 99-414 limits assumed) above
T1 sequence (P21554 whole entry): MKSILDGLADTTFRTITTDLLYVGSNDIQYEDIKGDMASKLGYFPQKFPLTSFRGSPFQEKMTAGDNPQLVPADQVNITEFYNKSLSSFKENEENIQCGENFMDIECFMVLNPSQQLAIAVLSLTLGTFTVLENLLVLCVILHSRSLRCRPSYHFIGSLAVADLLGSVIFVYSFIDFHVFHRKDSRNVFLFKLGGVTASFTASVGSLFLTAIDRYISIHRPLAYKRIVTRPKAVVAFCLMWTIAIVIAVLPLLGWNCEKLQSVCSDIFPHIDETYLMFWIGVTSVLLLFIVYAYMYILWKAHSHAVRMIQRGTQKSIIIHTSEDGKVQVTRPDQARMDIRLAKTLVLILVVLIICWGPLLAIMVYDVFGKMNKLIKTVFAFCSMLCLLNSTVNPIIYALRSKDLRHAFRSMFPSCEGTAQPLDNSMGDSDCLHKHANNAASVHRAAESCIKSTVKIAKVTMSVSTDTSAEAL
T3 sequence (P21554 whole entry, the tested form may be a part): as the sequence (P21554 whole entry) above
T5 sequence (P47746 whole entry): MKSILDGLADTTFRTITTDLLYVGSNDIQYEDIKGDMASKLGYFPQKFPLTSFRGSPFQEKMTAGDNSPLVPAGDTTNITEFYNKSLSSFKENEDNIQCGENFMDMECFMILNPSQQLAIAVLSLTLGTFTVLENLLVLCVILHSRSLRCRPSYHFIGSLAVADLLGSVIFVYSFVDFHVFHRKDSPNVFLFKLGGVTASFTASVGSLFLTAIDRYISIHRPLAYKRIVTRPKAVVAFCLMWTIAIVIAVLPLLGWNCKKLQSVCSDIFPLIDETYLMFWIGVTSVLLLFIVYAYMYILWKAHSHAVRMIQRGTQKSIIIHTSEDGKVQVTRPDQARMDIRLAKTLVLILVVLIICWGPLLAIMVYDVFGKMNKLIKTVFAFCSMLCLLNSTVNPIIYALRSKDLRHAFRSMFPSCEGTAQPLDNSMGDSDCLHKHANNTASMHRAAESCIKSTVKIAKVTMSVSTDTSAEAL
T6 sequence (P34972 whole entry): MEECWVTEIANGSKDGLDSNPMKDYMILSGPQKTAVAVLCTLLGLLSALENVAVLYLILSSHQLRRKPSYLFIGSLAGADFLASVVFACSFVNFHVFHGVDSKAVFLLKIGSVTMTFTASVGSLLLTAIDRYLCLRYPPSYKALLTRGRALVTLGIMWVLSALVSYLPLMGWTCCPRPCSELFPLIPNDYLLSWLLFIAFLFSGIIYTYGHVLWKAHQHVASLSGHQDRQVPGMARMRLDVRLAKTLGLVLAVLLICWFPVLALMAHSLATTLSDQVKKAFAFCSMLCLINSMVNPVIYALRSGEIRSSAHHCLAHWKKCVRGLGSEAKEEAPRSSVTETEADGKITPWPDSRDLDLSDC

B1: LIBC524049-1 (antibody, V domains shown)
VH: QVQLQESGPGLVKPSQTLSLTCTVSGGSIRRGGDYWSWIRQHPGKGLEWIGHIYYTGSTAYNPSLKSRATISVNTYKNQFSLKLSSVTAADTAVYYCARDYDILTGYSYYYYGMDVWGQGTTVTVSS
VL: not shown
notes: Expressed as IgG1 SEFL2 mAb
- IC50, nM (CP agonist) [1]: 3.7 nM
- Relative binding (KinExA, on cell; vs LIBC523661 mAb) [2]: 1.5 ratio
- Kd (huCB1 nanodisc (CB1-ND)): 15 nM
- koff (huCB1 nanodisc (CB1-ND)): 0.000904 s⁻¹
- kon (huCB1 nanodisc (CB1-ND)): 59000 M⁻¹ s⁻¹
- Mean IC50 (nM, n = 3), cAMP antagonist assay [3]: 3.71 nM
- Mean IC50 (nM), cAMP antagonist assay [4]: 2.87 nM
- Mean IC50, -fold vs Rimo [4]: 0.96 fold vs Rimonabant
- n = 1 IC50 (nM), cAMP antagonist assay [4]: 4.41 nM
- n = 1 IC50, -fold vs Rimo [4]: 1.05 fold vs Rimonabant
- n = 2 IC50 (nM), cAMP antagonist assay [4]: 1.34 nM
- n = 2 IC50, -fold vs Rimo [4]: 0.75 fold vs Rimonabant

B2: LIBC524049-1 (antibody, IgG1, V domains shown)
VH: B1 VH
VL: not shown
- 100 nM huCB1-SMALP binding (normalized to 10D10) [5]: 5.51 fold
- specific huCB1 binding (CB1 ND/Empty ND ratio) [6]: 9.5 ratio
- % of events in the upper right quadrant (display-positive, binding-positive) [7]: 24.8%
- % of events in the upper right quadrant (display-positive, binding-positive) [8]: 39.9%
- binding result (mouse CB1 [9]): no binding
- binding result [10]: no binding
- relative binding to 0.2 nM huCB1-ND (relative to 10D10N35Y) [11]: 5.01 fold
- Fold over mock (mouse CB1 [12]): 0.8 fold
- Fold over mock [13]: 1 fold

B3: LIBC527997-1 (antibody, V domains shown)
VH: B1 VH with S37A, Y55Q, A60N, S64R, L65F, S67G, D100N, I103T
VL: DIQMTQSPSSLSASVGDRVTITCRASQSISNYLNWYQQKPGKAPKLLIYAASSLHSGVPSRFSGSGSGTDFTLTISSLQPEDFASYYCQQYQSYPLTFGQGTKVEIKR
notes: Expressed as IgG1 SEFL2 mAb
- IC50, nM (CP agonist) [1]: 2.5 nM
- Relative binding (KinExA, on cell; vs LIBC523661 mAb) [2]: 2.1 ratio
- Kd (huCB1 nanodisc (CB1-ND)): 26 nM
- koff (huCB1 nanodisc (CB1-ND)): 0.00136 s⁻¹
- kon (huCB1 nanodisc (CB1-ND)): 51800 M⁻¹ s⁻¹
- Mean IC50 (nM, n = 3), cAMP antagonist assay [3]: 2.54 nM
- Mean IC50 (nM), cAMP antagonist assay [4]: 2.97 nM
- Mean IC50, -fold vs Rimo [4]: 0.99 fold vs Rimonabant
- n = 1 IC50 (nM), cAMP antagonist assay [4]: 4.37 nM
- n = 1 IC50, -fold vs Rimo [4]: 1.04 fold vs Rimonabant
- n = 2 IC50 (nM), cAMP antagonist assay [4]: 1.57 nM
- n = 2 IC50, -fold vs Rimo [4]: 0.88 fold vs Rimonabant

B4: LIBC527997-1 (antibody, IgG1, V domains shown)
VH: B1 VH with S37A, Y55Q, A60N, S64R, L65F, S67G, D100N, I103T
VL: B3 VL
- 100 nM huCB1-GFP-SMALP binding (normalized to 10D10N35Y) [14]: 6.63 fold
- binding result (mouse CB1 [9]): no binding
- binding result [10]: no binding
- 50.0 nM Empty Nanodisc binding (relative to 10D10N35Y) [15]: 0.44 fold
- 0.200 nM huCB1-Nanodisc binding (relative to 10D10N35Y) [16]: 6.38 fold
- Fold over mock (mouse CB1 [12]): 1 fold
- Fold over mock [13]: 0.8 fold

B5: LIBC527919-1 (antibody, V domains shown)
VH: B1 VH with S37A, I53V, Y55Q, S64N, L65F, S67D, D100N, I103A, T105S
VL: B3 VL with M4L, S30I, N31S, H55R, S85T, Q92S, S93N, Q100G, K103R
notes: Expressed as IgG1 SEFL2 mAb
- IC50, nM (CP agonist) [1]: 3 nM
- Relative binding (KinExA, on cell; vs LIBC523661 mAb) [2]: 2.9 ratio
- Kd (huCB1 nanodisc (CB1-ND)): 60 nM
- koff (huCB1 nanodisc (CB1-ND)): 0.00339 s⁻¹
- kon (huCB1 nanodisc (CB1-ND)): 56200 M⁻¹ s⁻¹
- Mean IC50 (nM, n = 3), cAMP antagonist assay [3]: 3.01 nM
- Mean IC50 (nM), cAMP antagonist assay [4]: 3.44 nM
- Mean IC50, -fold vs Rimo [4]: 1.15 fold vs Rimonabant
- n = 1 IC50 (nM), cAMP antagonist assay [4]: 5.09 nM
- n = 1 IC50, -fold vs Rimo [4]: 1.21 fold vs Rimonabant
- n = 2 IC50 (nM), cAMP antagonist assay [4]: 1.8 nM
- n = 2 IC50, -fold vs Rimo [4]: 1 fold vs Rimonabant

B6: LIBC527814-1 (antibody, IgG1, V domains shown)
VH: B1 VH with S37G, I53V, Y55Q, A60K, L65F, S67D, D100N, I103T
VL: B3 VL with S10T
- 100 nM huCB1-GFP-SMALP binding (normalized to 10D10N35Y) [14]: 6.44 fold
- binding result (mouse CB1 [9]): no binding
- binding result [10]: no binding
- 50.0 nM Empty Nanodisc binding (relative to 10D10N35Y) [15]: 0.61 fold
- 0.200 nM huCB1-Nanodisc binding (relative to 10D10N35Y) [16]: 6.49 fold
- Fold over mock (mouse CB1 [12]): 1.2 fold
- Fold over mock [13]: 0.9 fold
